This data set relates to MS2 coat protein. Nature of the data set: apparent KD of MS2 coat protein; designed switch direction (-1 OFF switch, 1 ON switch): -1; higher = weaker reporter binding. In short, it runs like this:
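On Illumina chips, designed RNA switches with common flanks were made by stalled E. coli RNA polymerase. Titrations with SNAP-549-labelled MS2 coat protein, doubling from 0.7 or 1.5 nM to 3 µM, were done with no input, with 200 uM small-molecule ligand, or with an oligonucleotide input. Apparent KD is the median per design over clusters, from curve fits of normalised cluster fluorescence.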

The mark [1] stands for this setting: Eterna round: R95, input ligand: microRNA oligo, concentration not stated.
The mark [2] stands for this setting: Eterna round: R95, input ligand: FMN 200 uM.
Setting [3] is: Eterna round: R95, input ligand: none.
Setting [4] is: input ligand: microRNA oligo, concentration not stated.

Regarding “CUCUUGUCAGGAUAUCUAAGCUGCCUCCCAGUAGCCGAAUUAGAGAAGGGACAUGAGGAUCACCCAUGUAAACG [Enaeren] (puzzle: Exclusion 4)”, the “apparent KD of MS2 coat protein” value under setting [1] is 0.106 µM.

In the case of “CUCUUGUCAGGAUAUCUAAGCUGCCUCCCGGUAGCCGAAUUAGAGAAGGGACAUGAGGAUCACCCAUGUAAAAG [Qubile] (puzzle: Exclusion 4)”, the “apparent KD of MS2 coat protein” value runs as follows: under setting [2], 0.0583 µM; under setting [1], 0.16 µM; under setting [3], 0.28 µM.

As to “CUCUUGUUAGGAUAUCAAACCGGCGGCGGAGCCGCCGGAAGUGAGAAGGGACAUGAGGAUCACCCAUGUAAGAA [Maorgees] (puzzle: Exclusion 4)”, the “apparent KD of MS2 coat protein” value under setting [1] is 0.0563 µM.

For the sequence “CUGAACCCGGUAGGAUAUAUUGUGGGCAAGCAUGGAACGACAUGAGGAUCACCCAUGUAAUUUAGGUAGAAGGGCCAAAAGAUU [Excl-NG2-LRO09] (Eterna round: R96, puzzle: Exclusion NG 2)”, the “apparent KD of MS2 coat protein” value by setting is: (input ligand: FMN 200 uM) 0.0346 µM; under setting [4], 0.0289 µM; (input ligand: none) 0.0539 µM.

“CUGAACCCGGUAGGAUAUAUUGUGGGCAAGCAUGGAACGACAUGAGGAUCACCCAUGUAAUUUAGGUAGAAGGGCCGAGAGAUU [Excl-NG2-LRO11] (Eterna round: R96, puzzle: Exclusion NG 2)”: the “apparent KD of MS2 coat protein” value was found to be 0.0707 µM (input ligand: FMN 200 uM), 0.0663 µM under setting [4] and 0.0673 µM (input ligand: none).

In the case of “CUGAAGGUGCAGGAUAUCCUGAAUAAGGGUUCAGGAGAAGGGCACACAUGAGGAUCACCCAUGUUAAUACUGCU [Eternabot (L2) Solution 54] (Eterna round: R97, puzzle: Exclusion 6)”, the “apparent KD of MS2 coat protein” value (input ligand: FMN 200 uM) was 0.0295 µM and the “apparent KD of MS2 coat protein” value (input ligand: none) is 0.0391 µM.

As to “CUGAGCAGACGGAGAUCCCACAUGAGGAUCACCCAUGUCUCAAAAGCUUUUUGCUUGUCUUAUUCUCCUCUGUUCUC [Arorza] (Eterna round: R96, puzzle: Sensor v3, turn-off variant 1)”, the “apparent KD of MS2 coat protein” value was 0.0137 µM (input ligand: FMN 200 uM), 0.0722 µM under setting [4] and 0.0158 µM (input ligand: none).

On to “CUGAGCAGACGGAGAUCCCACAUGAGGAUCACCCAUGUCUCAAAAGCUUUUUGCUUGUCUUAUUCUCCUCUGUUCUC [Arorza] (puzzle: Sensor v3, turn-off variant 1)”, for which the “apparent KD of MS2 coat protein” value was determined as 0.0139 µM under setting [2], 0.1 µM under setting [1] and 0.0114 µM under setting [3].

With “CUGAGCUGAGGAUAUACAUGAGGAUCACCCAUGUGAAGUAGCUUGCGUACAGGCAGAUGUAGAAGGCAGUUCGG [JL-ex3-3.31 Brourd mod] (puzzle: Exclusion 3)”, the “apparent KD of MS2 coat protein” value under setting [1] turned out to be 0.0346 µM.

As to “CUGAGCUGAGGAUAUACAUGAGGAUCACCCAUGUGAAGUAGCUUGCGUACAGGCAGAUGUAGAAGGCAGUUCGG [Mod of JL 1 - Jieux - Exclusion 3] (Eterna round: R97, puzzle: Exclusion 3)”, the “apparent KD of MS2 coat protein” value came to 0.25 µM (input ligand: FMN 200 uM) and 0.0421 µM (input ligand: none).

“CUGAGCUGAGGAUAUACAUGAGGAUCACCCAUGUGUUCCAGCUUGGGUACAGGCACAUGUAGAAGGCAGUUCGG [Mod of JL - ex3-3.35 Brourd mod] (puzzle: Exclusion 3)”: the “apparent KD of MS2 coat protein” value under setting [1] stood at 0.062 µM.

As to “CUGAGCUGAGGAUAUACAUGAGGAUCACCCAUGUUAAGCAGCUAGUGAAGAAGUAGAUGUAGAAGGCAGUUCGG [Mod of JL 21 - Jieux - Exclusion 3] (Eterna round: R97, puzzle: Exclusion 3)”, the “apparent KD of MS2 coat protein” value was 0.0752 µM (input ligand: FMN 200 uM) and 0.021 µM (input ligand: none).

As to “CUGAGGUAGCGGUCCUAUGACAUGAGGAUCACCCAUGUACCUUGCUUCGAGCUUAUUGCUCGUCUUAUGAUUCUCGG [Mat - Sensor v3 - turn-off var 1 - JL Mod - D33] (puzzle: Sensor v3, turn-off variant 1)”, the “apparent KD of MS2 coat protein” value came to 0.551 µM under setting [2], 0.714 µM under setting [1] and 0.613 µM under setting [3].

For “CUGAGGUAGCGGUCCUAUGACAUGAGGAUCACCCAUGUACCUUGCUUCGAGCUUUUAGCUCGUCUUAUGAUUCUCGG [Mat - Sensor v3 - turn-off var 1 - JL Mod - D36] (puzzle: Sensor v3, turn-off variant 1)”, the “apparent KD of MS2 coat protein” value runs as follows: under setting [2], 0.423 µM; under setting [1], 0.502 µM; under setting [3], 0.522 µM.

With “CUGAGGUAGCGGUCCUAUGACAUGAGGAUCACCCAUGUGCCUUGCUACAAGCUUUUUGCUCGUUUUAUGAUUCUCGG [JL Atriat mod 10] (puzzle: Sensor v3, turn-off variant 1)”, the “apparent KD of MS2 coat protein” value is 0.0728 µM under setting [2], 0.0646 µM under setting [1] and 0.0835 µM under setting [3].

“CUGAGUAGUCAGGAUAUGCUGUACAAAAGUACAGCAGAAGGGACUACAUGAGGAUCACCCAUGUUUACUUCAUG [)mei Ex6 B22] (Eterna round: R97, puzzle: Exclusion 6)”: the “apparent KD of MS2 coat protein” value runs as follows: (input ligand: FMN 200 uM) 1.26 µM; (input ligand: none) 0.821 µM.

For the sequence “CUGAGUUAAGGAUAUACAUGAGGAUCACCCAUGUAAAGUAGCUUGCGUACAGGCAGAUGUAGAAGGUAAUUCGG [Mod of JL 8 - Jieux - Exclusion 3] (Eterna round: R97, puzzle: Exclusion 3)”, for the setting “input ligand: FMN 200 uM”, the “apparent KD of MS2 coat protein” value worked out at 0.0372 µM.

As to “CUGAGUUGAGGAUAUACAUGAGGAUCACCCAUGUAAAGUAGCUUGCGUACAGGCAGAUGUAGAAGGCAAUUCGG [Mod of JL 3 - Jieux - Exclusion 3] (Eterna round: R97, puzzle: Exclusion 3)”, the “apparent KD of MS2 coat protein” value reads like this: (input ligand: FMN 200 uM) 0.0376 µM; (input ligand: none) 0.0245 µM.

As for “CUGAUGUCAGGAUAUCGGUGGCUCACUAAUGUGUGCCAGACCGAGAAGGGACAUGAGGAUCACCCAUGUCUUUA [Exclusion 4 (Mod5b of #36 by Marzena11)] (Eterna round: R97, puzzle: Exclusion 4)”, the “apparent KD of MS2 coat protein” value runs as follows: (input ligand: FMN 200 uM) 0.0424 µM; (input ligand: none) 0.0262 µM.

Regarding “CUGCAACAUGAGGAUCACCCAUGUCAGGAUAUUCCAAAAUCGUCGAAAGACGAUAACAGAAGAAGGGACAGUAG [Fiskxlusion 7 - Jieux - Exclusion 1] (Eterna round: R97, puzzle: Exclusion 1)”, the “apparent KD of MS2 coat protein” value was determined as 0.044 µM (input ligand: FMN 200 uM) and 0.0356 µM (input ligand: none).

On to “CUGCCAACGAAGCUUGUCGACAUGAGGAUCACCCAUGUUUCGCAAAGUGUUACAAAAAAAUAUCUGUAUGAAAAUGU [JR_Sensorv2_yov_Sub1319] (Eterna round: R96, puzzle: Sensor v2, turn-off variant)”, for which the “apparent KD of MS2 coat protein” value by setting is: (input ligand: FMN 200 uM) 0.0118 µM; under setting [4], 0.0102 µM; (input ligand: none) 0.0159 µM.

Consider “CUGCGUAGAGGAUAUACAUGAGGAUCACCCAUGUGCUAAAUGACUGCAUGCAAAUCGUGUAGAAGGUUGAAGGG [Eternabot (L2) Solution 85] (Eterna round: R97, puzzle: Exclusion 3)”, for which the “apparent KD of MS2 coat protein” value (input ligand: FMN 200 uM) was 0.0346 µM and the “apparent KD of MS2 coat protein” value (input ligand: none) was 0.0404 µM.

On to “CUGCUCCGUGUAGGAUAUGCAUACUCCCAUUAUGCAGAAGGACAUGAGGAUCACCCAUGUAUGUUAUUAUCACGUGUAGCGUAC [Design 15] (Eterna round: R96, puzzle: Exclusion NG 1)”, for which the “apparent KD of MS2 coat protein” value by setting is: (input ligand: FMN 200 uM) 0.104 µM; under setting [4], 0.0212 µM; (input ligand: none) 0.0299 µM.
